In publication PMC5429807, “Glucose uptake in Azotobacter vinelandii occurs through a GluP transporter that is under the control of the CbrA/CbrB and Hfq-Crc systems”:

T1: Crc (Azotobacter vinelandii AEIV, UniProt C1DI50 1-259)
T1 sequence: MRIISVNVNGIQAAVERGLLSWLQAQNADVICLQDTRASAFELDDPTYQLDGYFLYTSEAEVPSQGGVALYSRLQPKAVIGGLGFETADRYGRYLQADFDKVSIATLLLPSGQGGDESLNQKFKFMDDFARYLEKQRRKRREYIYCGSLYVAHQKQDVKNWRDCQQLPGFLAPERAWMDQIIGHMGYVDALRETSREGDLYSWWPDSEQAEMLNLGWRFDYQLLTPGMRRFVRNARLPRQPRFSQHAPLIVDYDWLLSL

T2: Hfq-His (P. putida) (Pseudomonas putida, UniProt Q88DD3 1-86)
T2 sequence: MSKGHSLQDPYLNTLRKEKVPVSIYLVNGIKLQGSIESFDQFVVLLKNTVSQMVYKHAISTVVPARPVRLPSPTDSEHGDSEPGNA


Experiments:
Hfq-His;Crc [1] = target: T3, Hfq-His;Crc (Azotobacter vinelandii …, UniProt C1DLQ2;C1DI50 1-84;1-259, |); experiment: EMSA; control RNA; stable complex not observed; RNA EMSA as in a cited protocol (ref. 13), excess tRNA, non-denaturing polyacrylamide gel; buffer, salt, pH and temperature not given in the material; settings: protein: recombinant;recombinant; tags: C-terminal His6;none (intein removed); chain copies: 6;1; single strand
T3 sequence (C1DLQ2 whole entry, one chain of several): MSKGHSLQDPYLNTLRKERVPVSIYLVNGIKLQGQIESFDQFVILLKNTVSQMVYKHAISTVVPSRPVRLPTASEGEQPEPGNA

Crc = target: T1, Crc; experiment: EMSA; Crc alone; RNA EMSA as in a cited protocol (ref. 13), excess tRNA, non-denaturing polyacrylamide gel; buffer, salt, pH and temperature not given in the material; settings: protein: recombinant; tags: none (intein removed); label: 5'-32P; single strand
Hfq-His (P. putida) = target: T2, Hfq-His (P. putida); experiment: EMSA; Hfq alone, at the tested concentrations; RNA EMSA as in a cited protocol (ref. 13), excess tRNA, non-denaturing polyacrylamide gel; buffer, salt, pH and temperature not given in the material; settings: protein: recombinant; tags: His; chain copies: 6; label: 5'-32P; single strand
Hfq-His;Crc [2] = target: T3, Hfq-His;Crc; experiment: EMSA; about equimolar Hfq hexamer and Crc needed; RNA EMSA as in a cited protocol (ref. 13), excess tRNA, non-denaturing polyacrylamide gel; buffer, salt, pH and temperature not given in the material; settings: protein: recombinant;recombinant; tags: C-terminal His6;none (intein removed); chain copies: 6;1; label: 5'-32P; single strand

| Binder | binding result (Hfq-His;Crc [1]) | binding result (Crc) | binding result (Hfq-His (P. putida)) | binding result (Hfq-His;Crc [2]) |
| --- | --- | --- | --- | --- |
| UUCCCCAUCUCCCCAUCCAUAGGGGC (ssRNA) [DmpR 6C control RNA] | no binding | – | – | – |
| AAGCAACAAUCACAACAAGAGGAAAU (ssRNA) [gluP A-rich RNA oligo] | – | no binding | no binding | binds |
